# Experimental data from publication PMC5302901.
# Target: Grb2 (UniProt Q07883)
# Assay: IP of Grb2, blot for CD22
# Conditions: reference: CD22-WT; sites Y773,Y783,Y828,Y843,Y863
substance,measurement,value
CD22 (from UniProt P35329) F1/2/4/5/6,binding against the reference,lost
